For the experiment, the target named is CD20 (UniProt P11836). In words: cell-based or functional assay.
UniProt P11836, sequence (P11836 whole entry): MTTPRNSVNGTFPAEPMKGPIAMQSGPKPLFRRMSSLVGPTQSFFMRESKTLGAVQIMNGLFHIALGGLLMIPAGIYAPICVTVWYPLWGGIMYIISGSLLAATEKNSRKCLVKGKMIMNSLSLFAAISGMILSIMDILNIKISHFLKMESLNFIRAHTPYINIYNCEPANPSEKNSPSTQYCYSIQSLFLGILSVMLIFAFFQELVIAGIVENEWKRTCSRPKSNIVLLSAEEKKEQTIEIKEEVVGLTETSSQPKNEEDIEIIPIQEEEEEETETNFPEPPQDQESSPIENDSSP

For the substance Rituximab (antibody), the CDC Depletion Efficiency (complement-dependent cytotoxicity killing) stood at 60%.

The values are drawn from patent US20250339558A1.
